Paper PMC4703387, “Identification of the Calmodulin-Binding Domains of Fas Death Receptor” (PLoS ONE, 2016)

Biological target: T1, calmodulin, calcium-bound (Ca2+/CaM) (UniProt P0DP23 1-149)
T1 construct: all experiments in the presence of calcium; Used unlabelled or 15N/13C-labelled; also called full-length Ca^2+/CaM
Assay: NMR titration; 2D 1H-15N HSQC; unlabelled peptide titrated into 15N-labelled Ca2+/CaM, Ca2+/CaM-N or Ca2+/CaM-C (100-150 uM), 35°C, 50 mM Tris-d11 pH 7.0, 100 mM NaCl, 5 mM CaCl2; Kd by one-site fit of chemical shift changes
Conditions: both partners purified

binding result: binds
B1: FasDD(224-238) peptide (peptide)
peptide: MTLSQVKGFVRKNGV
notes: also called FasDD(228–238); source: synthetic peptide, bought: Genscript (>95% purity)
